Key:
[1] = biological target: T1, K8 (1-383); assay: Western blot of SDS-PAGE-separated K8 GST fusion proteins, stained with COU-1 alone
T1 construct: not shown: N-terminal GST and its linker (modified pGEX-2T)
T1 chain: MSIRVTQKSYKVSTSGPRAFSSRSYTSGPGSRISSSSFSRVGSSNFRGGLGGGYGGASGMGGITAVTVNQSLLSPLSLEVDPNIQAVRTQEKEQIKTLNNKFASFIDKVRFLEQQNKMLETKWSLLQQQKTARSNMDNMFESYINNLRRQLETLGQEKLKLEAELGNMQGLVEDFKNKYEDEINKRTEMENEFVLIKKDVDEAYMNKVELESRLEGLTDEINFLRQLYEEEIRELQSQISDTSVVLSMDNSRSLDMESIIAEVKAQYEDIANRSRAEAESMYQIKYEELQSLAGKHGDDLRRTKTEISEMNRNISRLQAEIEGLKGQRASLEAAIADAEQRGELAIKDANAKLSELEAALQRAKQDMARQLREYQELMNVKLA

[2] = biological target: T2, recombinant intact K8 (GST fusion protein) (human, UniProt P05787 2-483); assay: as above
T2 construct: Alone, not complexed with K18; GST placed first as in pGEX vectors; also called full length K8; cytokeratin 8; not shown: glutathione S-transferase (GST) fusion partner, modified pGEX-2T vector
T2 chain: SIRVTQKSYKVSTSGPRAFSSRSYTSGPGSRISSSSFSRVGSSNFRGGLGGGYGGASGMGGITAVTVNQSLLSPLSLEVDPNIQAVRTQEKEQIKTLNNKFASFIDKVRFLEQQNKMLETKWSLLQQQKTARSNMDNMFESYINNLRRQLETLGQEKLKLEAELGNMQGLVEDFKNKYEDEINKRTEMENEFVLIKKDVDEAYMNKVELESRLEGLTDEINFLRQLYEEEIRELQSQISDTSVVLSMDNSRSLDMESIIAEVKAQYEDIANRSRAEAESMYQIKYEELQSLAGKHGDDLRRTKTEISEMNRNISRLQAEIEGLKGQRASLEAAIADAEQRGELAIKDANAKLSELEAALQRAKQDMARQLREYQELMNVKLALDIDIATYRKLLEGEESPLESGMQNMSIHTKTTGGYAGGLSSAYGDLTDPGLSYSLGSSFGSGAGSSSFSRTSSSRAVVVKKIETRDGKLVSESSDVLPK

[3] = biological target: T3, cleaved K8/K18 heterotypic complexes from adenovirus-infected HeLa cells (human, UniProt P05787 2-483; P05783 75-430, limits assumed); assay: Western blot of cytokeratin purified from adenovirus-infected HeLa cells (data not shown)
T3 construct: also called cytokeratin from HeLa cells infected with adenovirus
T3 chain 1: T2 chain
T3 chain 2: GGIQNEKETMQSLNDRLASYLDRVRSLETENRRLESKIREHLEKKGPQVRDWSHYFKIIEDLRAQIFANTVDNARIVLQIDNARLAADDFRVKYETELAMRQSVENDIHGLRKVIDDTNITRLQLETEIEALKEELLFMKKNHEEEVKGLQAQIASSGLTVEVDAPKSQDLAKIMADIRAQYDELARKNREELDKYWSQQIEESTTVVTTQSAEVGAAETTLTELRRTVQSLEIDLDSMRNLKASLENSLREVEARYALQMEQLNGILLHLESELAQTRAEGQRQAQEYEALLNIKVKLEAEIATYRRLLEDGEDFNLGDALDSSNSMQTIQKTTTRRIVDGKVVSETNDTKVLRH

B1: human monoclonal IgM antibody COU-1 (antibody, V domains shown)
VH: GAEVKKPGASVKVSCKASDYTFSSYYMHWVRQAPGQGLEWMGIINPSGGSTSYAQKFQGRVTMTRDTSTNTVYMELSSLRSEDTAVYYCARDQVVVAATLSNYGMDVWGQGTTVTVSS
VL: ELTQSPGTLSLSPGERATLSCRASQSVSSSYLAWYQQKPGQAPRLLIYDASNRATGIPARFSGSGSGTDFTLTISSLEPEDFAVYYCQQGTNWGIAFGQGTRLDIKR
notes: Human IgM with kappa light chain, secreted by hybridoma B9165 (ECACC 87040201), purified from culture supernatant; also called HMab COU-1; HuMab COU-1
**Q.** Does B1 bind [1]?
**A.** no binding (tested: 5 µg/ml COU-1 (P-0279))

**Q.** Does B1 bind [2]?
**A.** no binding (tested: 5 µg/ml COU-1 (P-0279))

**Q.** Does B1 bind [3]?
**A.** no binding
